Molecular target: T1, Recombinant human his-tagged CD38 protein (human, UniProt P28907 43-300)
T1 construct: not shown: his tag
Test: SPR (Biacore T200, 25 C), antibody captured on anti-human Fc CM5 chip, his-tagged human CD38 as analyte, steady state affinity model
Protocol: Binding kinetics of parent antibody CD38 A2 and variant antibody CD38 A2 SV was measured using surface plasmon resonance (SPR). Kinetic interaction between the parent or variant antibody and a his-tagged CD38 protein were measured at 25° C. using Biacore T200 surface plasmon resonance (GE Healthcare). Anti-human fragment crystallizable region (Fc region) antibody was immobilized on a CM5 sensor chip to approximately 8000 resonance units (RU) using standard N hydroxysuccinimide/N Ethyl-N′-(3-dimethylaminopropyl) carbodiimide hydrochloride (NHS/EDC) coupling methodology. The CD38 A2 parent antibody or CD38 A2 SV variant antibody (2 μg/mL) was captured for 60 seconds at a flow rate of 10 μL/minute. Recombinant human his-tagged CD38 protein was serially diluted in a running buffer of 0.01 M HEPES pH 7.4, 0.15 M NaCl, 3 mM EDTA, 0.05% v/v Surfactant P20 (HBS EP+). All measurements were conducted in HBS-EP+buffer with a flow rate of 30 μL/minute. Steady state affinity model was used to get affinity. The sensorgrams of the CD38 A2 parent antibody and CD38 A2 SV variant antibody are shown in FIGS. 3A and B, respectively, and their corresponding binding kinetics are listed in Table 3 below.

Kd: 15.6 nM
B1: variant antibody CD38 A2 SV (antibody, V domains shown)
VH: QVQLVESGGGLVKPGGSLRLSCAASGFTFSDDYMSWIRQAPGKGLEWVASVSNGRPTTYYADSVRGRFTISRDNAKNSLYLQMNSLRAEDTAVYYCAREDWGGEFTDWGRGTLVTVSS
VL: QSVLTQPPSASGTSGQRVTISCSGSSSNIGINFVYWYQHLPGTAPKLLIYKNNQRPSGVPDRFSGSKSGNSASLAISGLRSEDEADYYCAAWDDSLSGYVFGSGTKVTVL
notes: also called CD38-A2 SV mutant; CD38 A2 SV variant antibody

Source: patent US20210130484A1 (SORRENTO THERAPEUTICS, published 2021)
